Data on 94 variants can be found in the supplement of paper PMC10567573.

To fix the notation:
B1: KLHL14 (parent)
chain: WLYCYDPVMDVWARKQDMNTKRAI
B2: FBXO39 (parent)
chain: RVFKARIYTNRYETNEEDKTLQEI
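Note: lentivirally expressed fusions sorted by FACS into six bins by GFP to DsRed ratio, PSI derived from sequencing read proportions per bin multiplied by bin number.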

The first data set covers variants of B1. Description: protein stability index of a GFP-peptide fusion (GPS, HEK-293T) (PSI 1-6); higher = more stable. To be noted: c terminus: a fixed tail appended.
WHYCYDPVMDVWARKQDMNTKRAI [L2H]: the protein stability index is 2.35. WKYCYDPVMDVWARKQDMNTKRAI [L2K]: the protein stability index turned out to be 2.29. The same measure, in the same setting: for WIYCYDPVMDVWARKQDMNTKRAI [L2I] the value was 1.84; for WRYCYDPVMDVWARKQDMNTKRAI [L2R], 2.06; for WYYCYDPVMDVWARKQDMNTKRAI [L2Y], 2.52. Consider WTYCYDPVMDVWARKQDMNTKRAI [L2T], for which the protein stability index came to 2.11.

Consider WEYCYDPVMDVWARKQDMNTKRAI [L2E], for which the protein stability index stood at 2.61. For WCYCYDPVMDVWARKQDMNTKRAI [L2C], the protein stability index came to 2.18. Regarding WAYCYDPVMDVWARKQDMNTKRAI [L2A], the protein stability index was 2.24. On the same count and under the same terms, in the case of WPYCYDPVMDVWARKQDMNTKRAI [L2P] it was 2.13; in that of WQYCYDPVMDVWARKQDMNTKRAI [L2Q], 2.55. On to WFYCYDPVMDVWARKQDMNTKRAI [L2F], for which the protein stability index came to 1.45.

For the variant WMYCYDPVMDVWARKQDMNTKRAI [L2M], the protein stability index was determined as 1.9. Consider WSYCYDPVMDVWARKQDMNTKRAI [L2S], for which the protein stability index came out at 2.39. For WNYCYDPVMDVWARKQDMNTKRAI [L2N], the protein stability index was 2.19. Consider WGYCYDPVMDVWARKQDMNTKRAI [L2G], for which the protein stability index came out at 2.29. Same read-out and setting: in the case of WDYCYDPVMDVWARKQDMNTKRAI [L2D] it was 2.52; in that of WVYCYDPVMDVWARKQDMNTKRAI [L2V], 2.16.

As for WWYCYDPVMDVWARKQDMNTKRAI [L2W], the protein stability index worked out at 1.56. For WLACYDPVMDVWARKQDMNTKRAI [Y3A], the protein stability index was 2.02.

Consider WLWCYDPVMDVWARKQDMNTKRAI [Y3W], for which the protein stability index is 2.42. Regarding WLICYDPVMDVWARKQDMNTKRAI [Y3I], the protein stability index was found to be 2.06. Take WLLCYDPVMDVWARKQDMNTKRAI [Y3L]: the protein stability index was determined as 2.15. Still for that read-out and setting: in the case of WLQCYDPVMDVWARKQDMNTKRAI [Y3Q] it was 1.97; in that of WLCCYDPVMDVWARKQDMNTKRAI [Y3C], 2.64. For the variant WLKCYDPVMDVWARKQDMNTKRAI [Y3K], the protein stability index is 2.09. Take WLFCYDPVMDVWARKQDMNTKRAI [Y3F]: the protein stability index worked out at 1.65. As to WLTCYDPVMDVWARKQDMNTKRAI [Y3T], the protein stability index came to 2.36. Turning to WLNCYDPVMDVWARKQDMNTKRAI [Y3N], the protein stability index stood at 2.12. As to WLSCYDPVMDVWARKQDMNTKRAI [Y3S], the protein stability index worked out at 1.77. For the variant WLVCYDPVMDVWARKQDMNTKRAI [Y3V], the protein stability index was 2.86. For WLDCYDPVMDVWARKQDMNTKRAI [Y3D], the protein stability index turned out to be 2.44. On the same count and under the same terms, in the case of WLPCYDPVMDVWARKQDMNTKRAI [Y3P] it was 2.7; in that of WLRCYDPVMDVWARKQDMNTKRAI [Y3R], 1.25; in that of WLGCYDPVMDVWARKQDMNTKRAI [Y3G], 2.01. Consider WLHCYDPVMDVWARKQDMNTKRAI [Y3H], for which the protein stability index worked out at 2.22. On the same count and under the same terms, in the case of WLMCYDPVMDVWARKQDMNTKRAI [Y3M] it was 1.96; in that of WLECYDPVMDVWARKQDMNTKRAI [Y3E], 2.33.

As to WLYFYDPVMDVWARKQDMNTKRAI [C4F], the protein stability index is 1.94.

Take WLYDYDPVMDVWARKQDMNTKRAI [C4D]: the protein stability index turned out to be 2.06. For the variant WLYAYDPVMDVWARKQDMNTKRAI [C4A], the protein stability index was 2.34.

For the variant WLYEYDPVMDVWARKQDMNTKRAI [C4E], the protein stability index was determined as 2.41.

In the case of PLYCYDPVMDVWARKQDMNTKRAI [W1P], the protein stability index stood at 2.88. Take VLYCYDPVMDVWARKQDMNTKRAI [W1V]: the protein stability index stood at 1.63. Turning to CLYCYDPVMDVWARKQDMNTKRAI [W1C], the protein stability index amounted to 2.27.

On to NLYCYDPVMDVWARKQDMNTKRAI [W1N], for which the protein stability index came out at 3.29. As for SLYCYDPVMDVWARKQDMNTKRAI [W1S], the protein stability index is 3.06.

ILYCYDPVMDVWARKQDMNTKRAI [W1I]: the protein stability index was 1.92. For the variant LLYCYDPVMDVWARKQDMNTKRAI [W1L], the protein stability index came to 2.53.

Take DLYCYDPVMDVWARKQDMNTKRAI [W1D]: the protein stability index stood at 4.41. As for RLYCYDPVMDVWARKQDMNTKRAI [W1R], the protein stability index was found to be 2.55. For ALYCYDPVMDVWARKQDMNTKRAI [W1A], the protein stability index came out at 2.56.

Turning to TLYCYDPVMDVWARKQDMNTKRAI [W1T], the protein stability index was found to be 3.09. For the variant KLYCYDPVMDVWARKQDMNTKRAI [W1K], the protein stability index came out at 2.55. FLYCYDPVMDVWARKQDMNTKRAI [W1F]: the protein stability index turned out to be 1.99.

Consider GLYCYDPVMDVWARKQDMNTKRAI [W1G], for which the protein stability index is 2.4. Consider HLYCYDPVMDVWARKQDMNTKRAI [W1H], for which the protein stability index was 3.4. With MLYCYDPVMDVWARKQDMNTKRAI [W1M], the protein stability index came out at 2.62.

For QLYCYDPVMDVWARKQDMNTKRAI [W1Q], the protein stability index worked out at 3.33. For the variant YLYCYDPVMDVWARKQDMNTKRAI [W1Y], the protein stability index came to 2.25. On to ELYCYDPVMDVWARKQDMNTKRAI [W1E], for which the protein stability index turned out to be 3.72.

In the next data set the parent is B2. The data set is described as above. To be noted: c terminus: a fixed tail appended.
Take RVFKARIYTNRYETNEEDKTLQVI [E23V]: the protein stability index amounted to 2.41. RVFKARIYTNRYETNEEDKTLQPI [E23P]: the protein stability index was found to be 2.39. Same read-out and setting: in the case of RVFKARIYTNRYETNEEDKTLQYI [E23Y] it was 2.14; in that of RVFKARIYTNRYETNEEDKTLQFI [E23F], 1.93.

Turning to RVFKARIYTNRYETNEEDKTLQRI [E23R], the protein stability index was found to be 2.05. As for RVFKARIYTNRYETNEEDKTLQHI [E23H], the protein stability index stood at 2.74.

In the case of RVFKARIYTNRYETNEEDKTLQNI [E23N], the protein stability index was determined as 2.15.

On to RVFKARIYTNRYETNEEDKTLQKI [E23K], for which the protein stability index stood at 2.74. Take RVFKARIYTNRYETNEEDKTLQWI [E23W]: the protein stability index is 1.74. Take RVFKARIYTNRYETNEEDKTLQTI [E23T]: the protein stability index came out at 2.44. Turning to RVFKARIYTNRYETNEEDKTLQII [E23I], the protein stability index stood at 1.88.

Turning to RVFKARIYTNRYETNEEDKTLQLI [E23L], the protein stability index came to 2.42.

As for RVFKARIYTNRYETNEEDKTLQSI [E23S], the protein stability index was 2.32. Turning to RVFKARIYTNRYETNEEDKTLQGI [E23G], the protein stability index was determined as 2.19.

Take RVFKARIYTNRYETNEEDKTLQMI [E23M]: the protein stability index stood at 2.14. The same measure, in the same setting: for RVFKARIYTNRYETNEEDKTLQQI [E23Q] the value was 2.21. In the case of RVFKARIYTNRYETNEEDKTLQDI [E23D], the protein stability index came out at 2.58. Still for that read-out and setting: in the case of RVFKARIYTNRYETNEEDKTLQEH [I24H] it was 3.7; in that of RVFKARIYTNRYETNEEDKTLQEP [I24P], 3.21. Same read-out and setting: in the case of RVFKARIYTNRYETNEEDKTLQEW [I24W] it was 2.34. As to RVFKARIYTNRYETNEEDKTLQEY [I24Y], the protein stability index was 3.17. Consider RVFKARIYTNRYETNEEDKTLQEK [I24K], for which the protein stability index was determined as 2.98. Still for that read-out and setting: in the case of RVFKARIYTNRYETNEEDKTLQEV [I24V] it was 3.44; in that of RVFKARIYTNRYETNEEDKTLQET [I24T], 2.75.

Turning to RVFKARIYTNRYETNEEDKTLQEQ [I24Q], the protein stability index was 3.32. Take RVFKARIYTNRYETNEEDKTLQEE [I24E]: the protein stability index turned out to be 3.48. Consider RVFKARIYTNRYETNEEDKTLQEF [I24F], for which the protein stability index is 2.55.

With RVFKARIYTNRYETNEEDKTLQED [I24D], the protein stability index was 3.26. Regarding RVFKARIYTNRYETNEEDKTLQEC [I24C], the protein stability index came out at 2.61. For the variant RVFKARIYTNRYETNEEDKTLQES [I24S], the protein stability index was determined as 3.36. With RVFKARIYTNRYETNEEDKTLQER [I24R], the protein stability index came out at 3.22.

Regarding RVFKARIYTNRYETNEEDKTLQEM [I24M], the protein stability index was 2.25. As to RVFKARIYTNRYETNEEDKTLQEN [I24N], the protein stability index was 2.64.
